Results as given in patent publication US9802997B2, “Peptides and combination of peptides for use in immunotherapy against various tumors” (immatics biotechnologies GmbH, priority 2015, dated 2017).

Legend:
[1] = target: HLA-A*02:01 (Homo sapiens, UniProt P04439, D140Y/D185E/D98H/E176V/E277Q/G131W/G231S/I119V/I121R/I166T/I218V/L300P/L318F/N151K/N90K/P208A/P217A/Q86G/Q94H/R138H/R169H/T345S); test: MHC binding assay (UV-ligand exchange, beta2m ELISA); details: binding to HLA-A*02:01, β2m ELISA
In short: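 UV-exchange pMHC monomers, 100-fold diluted → streptavidin capture 1 h 37 °C → HRP anti-β2m 2 ug/ml 1 h 37 °C → TMB, A450. Yield from HLA-A*02:01/MLA-001 monomer standard curve, 15-500 ng/ml. Only stably bound peptides keep β2m-containing complexes intact.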

[2] = test system: CD8+ T cells of healthy HLA-A*02 donors; test: In vitro immunogenicity: in vitro T-cell priming with aAPCs loaded with peptide/MHC complexes and anti-CD28 antibody, pMHC multimer readout; type: cell-based, human; details: for Wells positive [%]: HLA-A*02 restricted peptides
Description: In order to obtain information regarding the immunogenicity of the TUMAPs of the present invention, the inventors performed investigations using an in vitro T-cell priming assay based on repeated stimulations of CD8+ T cells with artificial antigen presenting cells (aAPCs) loaded with peptide/MHC complexes and anti-CD28 antibody.
In order to perform in vitro stimulations by artificial antigen presenting cells loaded with peptide-MHC complex (pMHC) and anti-CD28 antibody, the inventors first isolated CD8+ T cells from fresh HLA-A*02 leukapheresis products via positive selection using CD8 microbeads (Miltenyi Biotec, Bergisch-Gladbach, Germany) of healthy donors obtained from the University clinics Mannheim, Germany, after informed consent. PBMCs and isolated CD8+ lymphocytes were incubated in T-cell medium (TCM) until use consisting of RPMI-Glutamax (Invitrogen, Karlsruhe, Germany) supplemented with 10% heat inactivated human AB serum (PAN-Biotech, Aidenbach, Germany), 100 U/ml Penicillin/100 μg/ml Streptomycin (Cambrex, Cologne, Germany), 1 mM sodium pyruvate (CC Pro, Oberdorla, Germany), 20 μg/ml Gentamycin (Cambrex). 2.5 ng/ml IL-7 (PromoCell, Heidelberg, Germany) and 10 U/ml IL-2 (Novartis Pharma, Nürnberg, Germany) were also added to the TCM at this step. Generation of pMHC/anti-CD28 coated beads, T-cell stimulations and readout was performed in a highly defined in vitro system using four different pMHC molecules per stimulation condition and 8 different pMHC molecules per readout condition.
The purified co-stimulatory mouse IgG2a anti human CD28 Ab 9.3 (Jung et al., 1987) was chemically biotinylated using Sulfo-N-hydroxysuccinimidobiotin as recommended by the manufacturer (Perbio, Bonn, Germany). Beads used were 5.6 μm diameter streptavidin coated polystyrene particles (Bangs Laboratories, Illinois, USA).
pMHC used for positive and negative control stimulations were A*0201/MLA-001 (peptide […] (SEQ ID NO. 289) from modified Melan-A/MART-1) and A*0201/DDX5-001 ([…] from DDX5, SEQ ID NO. 290), respectively.
800.000 beads/200 μl were coated in 96-well plates in the presence of 4×12.5 ng different biotin-pMHC, washed and 600 ng biotin anti-CD28 were added subsequently in a volume of 200 μl. Stimulations were initiated in 96-well plates by co-incubating 1×10^6 CD8+ T cells with 2×10^5 washed coated beads in 200 μl TCM supplemented with 5 ng/ml IL-12 (PromoCell) for 3 days at 37° C. Half of the medium was then exchanged by fresh TCM supplemented with 80 U/ml IL-2 and incubating was continued for 4 days at 37° C. This stimulation cycle was performed for a total of three times. For the pMHC multimer readout using 8 different pMHC molecules per condition, a two-dimensional combinatorial coding approach was used as previously described (Andersen et al., 2012) with minor modifications encompassing coupling to 5 different fluorochromes. Finally, multimeric analyses were performed by staining the cells with Live/dead near IR dye (Invitrogen, Karlsruhe, Germany), CD8-FITC antibody clone SK1 (BD, Heidelberg, Germany) and fluorescent pMHC multimers. For analysis, a BD LSRII SORP cytometer equipped with appropriate lasers and filters was used. Peptide specific cells were calculated as percentage of total CD8+ cells. Evaluation of multimeric analysis was done using the FlowJo software (Tree Star, Oregon, USA). In vitro priming of specific multimer+CD8+ lymphocytes was detected by comparing to negative control stimulations.

[3] = percentage of positive wells among evaluable

| Substance | Peptide exchange (MHC class I binding score, peptide exchange yield) [1] | further results |
| --- | --- | --- |
| 101 (SLLEVNEASSV; listed as Homo sapiens) [compound 101] | +++ (≧50 = +++) | Wells positive [%] [2, 3]: + (<20% = +) |
| 242 (KLQEEIPVL; listed as Homo sapiens) [compound 242] | +++ (≧50 = +++) | Wells positive [%] [2, 3]: + (<20% = +) |
| 14 (YTFSGDVQL; listed as Homo sapiens) [compound 14] | +++ (≧50 = +++) | Wells positive [%] [2, 3]: + (<20% = +) |
| 236 (KMSELQTYV; listed as Homo sapiens) [compound 236] | +++ (≧50 = +++) | Wells positive [%] [2, 3]: + (<20% = +) |
| 9 (SLITGQDLLSV; listed as Homo sapiens) [compound 9] | +++ (≧50 = +++) | Wells positive [%] [2, 3]: + (<20% = +) |
| 288 (SLYKGLLSV; listed as Homo sapiens) [compound 288] | – | in vitro immunogenicity: donors ([2]; percentage of positive donors among evaluable, HLA-A*02 healthy donors, three stimulation cycles): ++++ (>=70% = ++++) |
| 260 (ALNESLVEC; listed as Homo sapiens) [compound 260] | +++ (≧50 = +++) | Wells positive [%] [2, 3]: + (<20% = +) |
| 27 (GLLGKVTSV; listed as Homo sapiens) [compound 27] | +++ (≧50 = +++) | Wells positive [%] [2, 3]: + (<20% = +) |
| 89 (SLAETIFIV; listed as Homo sapiens) [compound 89] | +++ (≧50 = +++) | Wells positive [%] [2, 3]: + (<20% = +) |
| 257 (KLIDHQGLYL; listed as Homo sapiens) [compound 257] | +++ (≧50 = +++) | Wells positive [%] [2, 3]: + (<20% = +) |
| 39 (YLEDGFAYV; listed as Homo sapiens) [compound 39] | +++ (≧50 = +++) | Wells positive [%] [2, 3]: ++++ (>=70% = ++++) |
| 287 (KIQEILTQV; listed as Homo sapiens) [compound 287] | – | in vitro immunogenicity: wells ([2]; percentage of positive wells among evaluable, HLA-A*02 healthy donors, three stimulation cycles): + (<20% = +) |
| 267 (YLLDMPLWYL; listed as Homo sapiens) [compound 267] | +++ (≧50 = +++) | Wells positive [%] [2, 3]: + (<20% = +) |
| 29 (KMISAIPTL; listed as Homo sapiens) [compound 29] | ++ (≧20% = ++) | Wells positive [%] [2, 3]: + (<20% = +) |
| 184 (ALDSTIAHL; listed as Homo sapiens) [compound 184] | ++ (≧20% = ++) | – |
| 179 (TLGEIIKGV; listed as Homo sapiens) [compound 179] | +++ (≧50 = +++) | – |
| 238 (HLQEKLQSL; listed as Homo sapiens) [compound 238] | ++ (≧20% = ++) | – |
| 108 (FIANLPPELKA; listed as Homo sapiens) [compound 108] | +++ (≧50 = +++) | – |
| 51 (LDSEALLTL; listed as Homo sapiens) [compound 51] | ++ (≧20% = ++) | – |
| 281 (LLLESDPKVYSL; listed as Homo sapiens) [compound 281] | ++ (≧20% = ++) | – |
| 203 (FLFVDPELV; listed as Homo sapiens) [compound 203] | ++ (≧20% = ++) | – |

| Substance | Peptide exchange (MHC class I binding score, peptide exchange yield) [1] | further results |
| --- | --- | --- |
| 33 (TLDRNSLYV; listed as Homo sapiens) [compound 33] | ++ (≧20% = ++) | – |
| 148 (YLILSSHQL; listed as Homo sapiens) [compound 148] | +++ (≧50 = +++) | – |
| 160 (TLQEWLTEV; listed as Homo sapiens) [compound 160] | +++ (≧50 = +++) | – |
| 13 (RLHDENILL; listed as Homo sapiens) [compound 13] | +++ (≧50 = +++) | – |
| 166 (LLGDSSFFL; listed as Homo sapiens) [compound 166] | +++ (≧50 = +++) | – |
| 19 (KVFELDLVTL; listed as Homo sapiens) [compound 19] | ++ (≧20% = ++) | – |
| 183 (ALSYILPYL; listed as Homo sapiens) [compound 183] | +++ (≧50 = +++) | – |
| 141 (NIDINNNEL; listed as Homo sapiens) [compound 141] | ++ (≧20% = ++) | – |
| 116 (ALLSSVAEA; listed as Homo sapiens) [compound 116] | ++ (≧20% = ++) | – |
| 243 (GLAEFQENV; listed as Homo sapiens) [compound 243] | ++ (≧20% = ++) | – |
| 140 (FLDSQITTV; listed as Homo sapiens) [compound 140] | +++ (≧50 = +++) | – |
| 45 (FLPVSVVYV; listed as Homo sapiens) [compound 45] | +++ (≧50 = +++) | – |
| 241 (KQFEGTVEI; listed as Homo sapiens) [compound 241] | +++ (≧50 = +++) | – |
| 129 (KMASKVTQV; listed as Homo sapiens) [compound 129] | ++ (≧20% = ++) | – |
| 75 (ALLDGALQL; listed as Homo sapiens) [compound 75] | +++ (≧50 = +++) | – |
| 190 (SLSTELFKV; listed as Homo sapiens) [compound 190] | +++ (≧50 = +++) | – |
| 103 (YLADTVQKL; listed as Homo sapiens) [compound 103] | ++ (≧20% = ++) | – |
| 200 (IMPTFDLTKV; listed as Homo sapiens) [compound 200] | +++ (≧50 = +++) | – |
| 208 (HLNNDRNPL; listed as Homo sapiens) [compound 208] | ++ (≧20% = ++) | – |
| 153 (KLVELEHTL; listed as Homo sapiens) [compound 153] | +++ (≧50 = +++) | – |
| 286 (FLTEMVHFI; listed as Homo sapiens) [compound 286] | +++ (≧50 = +++) | – |
